Assay results as given in paper PMC12120360, “Lysine acetylation modulates s‐OPA1 GTPase activity and oligomerization in mitochondrial membrane remodeling” (Protein Science : A Publication of the Protein Society, 2025).
Positions count from the first letter of the chain named. Names may count otherwise.

B1: short form of human OPA1 (residues 195–960) wild-type (domain or fragment, UniProt O60313-1 195-960, looked up)
chain: ATDRGSESDKHFRKVSDKEKIDQLQEELLHTQLKYQRILERLEKENKELRKLVLQKDDKGIHHRKLKKSLIDMYSEVLDVLSDYDASYNTQDHLPRVVVVGDQSAGKTSVLEMIAQARIFPRGSGEMMTRSPVKVTLSEGPHHVALFKDSSREFDLTKEEDLAALRHEIELRMRKNVKEGCTVSPETISLNVKGPGLQRMVLVDLPGVINTVTSGMAPDTKETIFSISKAYMQNPNAIILCIQDGSVDAERSIVTDLVSQMDPHGRRTIFVLTKVDLAEKNVASPSRIQQIIEGKLFPMKALGYFAVVTGKGNSSESIEAIREYEEEFFQNSKLLKTSMLKAHQVTTRNLSLAVSDCFWKMVRESVEQQADSFKATRFNLETEWKNNYPRLRELDRNELFEKAKNEILDEVISLSQVTPKHWEEILQQSLWERVSTHVIENIYLPAAQTMNSGTFNTTVDIKLKQWTDKQLPNKAVEVAWETLQEEFSRFMTEPKGKEHDDIFDKLKEAVKEESIKRHKWNDFAEDSLRVIQHNALEDRSISDKQQWDAAIYFMEEALQARLKDTENAIENMVGPDWKKRWLYWKNRTQEQCVHNETKNELEKMLKCNEEHPAYLASDEITTVRKNLESRGVEVDPSLIKDTWHQVYRRHFLKTALNHCNLCRRGFYYYQRHFVDSELECNDVVLFWRIQRMLAITANTLRQQLTNTEVRRLEKNVKEVLEDFAEDGEKKIKLLTGKRVQLAEDLKKVREIQEKLDAFIEALHQEK
modifications: acetyl-lysine at K342 only (endogenous, acquired during expression; found by mass spectrometry)
notes: Optic Atrophy 1 (OPA1), human, short form (s-OPA1), residues 195-960; domain model of isoform 1; Gene bought from Genscript in the pGS-21a vector; also called s-OPA1 WT; s-OPA1; source: E. coli BL21 (DE3), purified (glutathione resin, 3C protease cleavage, size exclusion chromatography)
B2: s-OPA1 K772Q (domain or fragment, human, UniProt O60313-1 195-960, looked up)
chain: B1 chain with K578Q
modifications: acetyl-lysine at K713 only (endogenous, by mass spectrometry)
notes: Optic Atrophy 1 (OPA1), human, short form (s-OPA1), residues 195-960; domain model of isoform 1; Gene bought from Genscript in the pGS-21a vector; source: E. coli BL21 (DE3), purified (glutathione resin, 3C protease cleavage, size exclusion chromatography)
B3: s-OPA1 K328Q (domain or fragment, human, UniProt O60313-1 195-960, looked up)
chain: B1 chain with K134Q
modifications: acetyl-lysine at K713 only (endogenous, by mass spectrometry)
notes: Optic Atrophy 1 (OPA1), human, short form (s-OPA1), residues 195-960; domain model of isoform 1; Gene bought from Genscript in the pGS-21a vector; also called acetylation mimetic mutant K328Q; source: E. coli BL21 (DE3), purified (glutathione resin, 3C protease cleavage, size exclusion chromatography)
B4: s-OPA1 K579Q (domain or fragment, human, UniProt O60313-1 195-960, looked up)
chain: B1 chain with K385Q
modifications: endogenous lysine acetylation, sites listed in Figure 2c
notes: as for B2
B5: s-OPA1 K663Q (domain or fragment, human, UniProt O60313-1 195-960, looked up)
chain: B1 chain with K469Q
modifications: endogenous lysine acetylation, sites listed in Figure 2c
notes: as for B2
B6: s-OPA1 K328R (domain or fragment, human, UniProt O60313-1 195-960, looked up)
chain: B1 chain with K134R
modifications: endogenous lysine acetylation, sites listed in Figure 2c
notes: Optic Atrophy 1 (OPA1), human, short form (s-OPA1), residues 195-960; domain model of isoform 1; Made as a deacetylation mimetic; source: E. coli BL21 (DE3), purified (glutathione resin, 3C protease cleavage, size exclusion chromatography)
B7: s-OPA1 K663R (domain or fragment, human, UniProt O60313-1 195-960, looked up)
chain: B1 chain with K469R
modifications: endogenous lysine acetylation, sites listed in Figure 2c
notes: as for B2
B8: s-OPA1 K772R (domain or fragment, human, UniProt O60313-1 195-960, looked up)
chain: B1 chain with K578R
modifications: 10 endogenous acetylated lysine residues, including K328 and K342 (listed in Figure 2c)
notes: as for B2
B9: s-OPA1 K342Q (domain or fragment, human, UniProt O60313-1 195-960, looked up)
chain: B1 chain with K148Q
modifications: 11 additional acetylation sites (endogenous; listed in Figure 2c)
notes: as for B2
B10: s-OPA1 K342R (domain or fragment, human, UniProt O60313-1 195-960, looked up)
chain: B1 chain with K148R
modifications: 18 acetylated lysine sites (endogenous; listed in Figure 2c)
notes: as for B2
B11: s-OPA1 K579R (domain or fragment, human, UniProt O60313-1 195-960, looked up)
chain: B1 chain with K385R
modifications: endogenous lysine acetylation, sites listed in Figure 2c
notes: as for B2

Molecular target: the molecule itself
Experiment: mass photometry; protein in solution at 75 nM final; 20 mM HEPES-NaOH pH 7.5, 130 mM NaCl, 10 mM KCl, 2 mM MgCl2, 2 mM DTT, 2% glycerol; Refeyn mass photometer; mass measured three times for each protein

Stoichiometry N, 2:
B1, B2, B3, B4, B5, B6, B7, B8, B9, B10, B11
